Numbering of substitutions follows the chain as printed.
Experiments:
Test in all cases: cell_activity; CHO iGFFP reporter
LOX 3-4m.1415 = biological target: T1, LOX 3-4m.1415 (artificial (I-CreI derived))
T1 chain: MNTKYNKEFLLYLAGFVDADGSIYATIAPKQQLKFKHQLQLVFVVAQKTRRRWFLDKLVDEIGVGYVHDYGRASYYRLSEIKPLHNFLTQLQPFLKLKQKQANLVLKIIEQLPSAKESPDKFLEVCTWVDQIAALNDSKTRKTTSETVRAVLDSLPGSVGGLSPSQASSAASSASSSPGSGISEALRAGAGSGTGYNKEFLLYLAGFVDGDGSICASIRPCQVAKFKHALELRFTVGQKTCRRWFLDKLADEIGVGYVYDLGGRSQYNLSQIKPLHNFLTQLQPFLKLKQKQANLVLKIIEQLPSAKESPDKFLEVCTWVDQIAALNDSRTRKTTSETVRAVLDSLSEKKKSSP
Excerpt: (§1) A CHO cell reporter system (see WO/2012/167192, FIG. 3) was used to determine whether the engineered meganucleases generated in these studies could recognize and cleave the modified LOX 3-4 recognition sequences in Table 87. To perform the assay, a pair of CHO cell reporter lines were produced, which carried a non-functional Green Fluorescent Protein (GFP) gene expression cassette integrated into the genome of the cell. The GFP gene in each cell line was interrupted by a pair of recognition sequences such that intracellular cleavage of either recognition sequence by a meganuclease would stimulate a homologous recombination event resulting in a functional GFP gene. In both cell lines, one of the recognition sequences was derived from the LOX 3-4 recognition sequence (i.e., those sequences disclosed in Table 87), and the second recognition sequence was specifically recognized by a control meganuclease called “CHO 23/24.” CHO reporter cells comprising a recognition sequence derived from the LOX 3-4 recognition sequence and the CHO 23/24 recognition sequence are referred to herein as “test cells.”
(§2) Novel engineered meganucleases derived from the LOX 3-4x.109 meganuclease were prepared by making amino acid substitutions at one or more positions in the first subunit and one or more positions in the second subunit. These engineered meganucleases were then evaluated for cleavage of the LOX 3-4 recognition sequence modified to have an ATAG center sequence (SEQ ID NO: 184) in the CHO reporter assay according to Example 1.

LOX 3-4m.1353 = biological target: T2, LOX 3-4m.1353 (artificial (I-CreI derived))
T2 chain: T1 chain with E80Q, K227R, G263S
Excerpt: as §1, §2

LOX 3-4m.1345 = biological target: T3, LOX 3-4m.1345 (artificial (I-CreI derived))
T3 chain: T1 chain with R72G, E80Q, A250V, R330K
Excerpt: as §1, §2

LOX 3-4m.1329 = biological target: T4, LOX 3-4m.1329 (artificial (I-CreI derived))
T4 chain: T1 chain with K48H, E80Q, A250V, R330K
Excerpt: as §1, §2

LOX 3-4m.1237 = biological target: T5, LOX 3-4m.1237 (artificial (I-CreI derived))
T5 chain: T1 chain with K48A, R50I, E80Q, C241E, A250V, R264V, S265A, R330K
Excerpt: as §1
as §2, with “ATAA” for “ATAG”, “157)” for “184)”

LOX 3-4m.1269 = biological target: T6, LOX 3-4m.1269 (artificial (I-CreI derived))
T6 chain: T1 chain with K48H, R72H, A73C, E80Q, K139R, K239T, C241R, A250V, R264I, Q271E
Excerpt: as §1
as §2, with “ATAA” for “ATAG”, “157)” for “184)”

LOX 3-4m.1236 = biological target: T7, LOX 3-4m.1236 (artificial (I-CreI derived))
T7 chain: T1 chain with K48H, R50T, E80Q, K239A, C241K, A250V, G263Q, R264V, S265A
Excerpt: as §1
as §2, with “ATAA” for “ATAG”, “157)” for “184)”

LOX 3-4m.1293 = biological target: T8, LOX 3-4m.1293 (artificial (I-CreI derived))
T8 chain: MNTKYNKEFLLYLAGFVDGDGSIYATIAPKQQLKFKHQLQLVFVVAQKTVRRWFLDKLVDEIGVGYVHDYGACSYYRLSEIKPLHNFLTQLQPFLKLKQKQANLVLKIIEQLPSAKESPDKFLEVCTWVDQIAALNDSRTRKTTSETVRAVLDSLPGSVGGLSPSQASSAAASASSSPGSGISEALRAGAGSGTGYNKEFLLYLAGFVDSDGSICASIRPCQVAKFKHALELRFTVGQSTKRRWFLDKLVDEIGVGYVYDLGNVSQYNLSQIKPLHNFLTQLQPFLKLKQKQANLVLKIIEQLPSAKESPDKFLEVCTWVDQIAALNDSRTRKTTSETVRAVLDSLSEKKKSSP
Excerpt: as §1
as §2, with “ATAA” for “ATAG”, “157)” for “184)”

LOX 3-4m.765 = biological target: T9, LOX 3-4m.765 (artificial (I-CreI derived))
T9 chain: T1 chain with E80Q, K139R, K239S, C241R, A250V, G263R, R264I, S265A, Q271E
Excerpt: as §1
as §2, with “ACAA” for “ATAG”, “9)” for “184)”

LOX 3-4m.684 = biological target: T10, LOX 3-4m.684 (artificial (I-CreI derived))
T10 chain: T1 chain with E80Q, K239S, C241R, A250V, G263T, R264I, S265T, Q271E
Excerpt: as §1
as §2, with “ACAA” for “ATAG”, “9)” for “184)”

LOX 3-4m.750 = biological target: T11, LOX 3-4m.750 (artificial (I-CreI derived))
T11 chain: T1 chain with R50C, E80Q, K239A, C241R, A250V, G263R, R264I, Q271E
Excerpt: as §1
as §2, with “ACAA” for “ATAG”, “9)” for “184)”

B1: LOX 3-4 ATAG (dsDNA)
DNA 1: GTATAGCATATAGTATACGAAG
DNA 2: CTTCGTATACTATATGCTATAC
In the case of B1, the activity (LOX 3-4m.1415) is reported as 13.1 % GFP, the activity (LOX 3-4m.1353) is reported as 15.6 % GFP and the activity (LOX 3-4m.1345) is reported as 14 % GFP. The activity (LOX 3-4m.1329) was 15.5 % GFP.

B2: LOX 3-4 ATAA (dsDNA)
DNA 1: GTATAGCATATAATATACGAAG
DNA 2: CTTCGTATATTATATGCTATAC
With B2 the activity (LOX 3-4m.1237) was 8.13 % GFP, the activity (LOX 3-4m.1269) was 8.64 % GFP and the activity (LOX 3-4m.1236) was 9.28 % GFP. The activity (LOX 3-4m.1293) was 8 % GFP.

B3: LOX 3-4 ACAA (dsDNA)
DNA 1: GTATAGCATACAATATACGAAG
DNA 2: CTTCGTATATTGTATGCTATAC
B3 gave an activity (LOX 3-4m.765) of 9.32 % GFP, an activity (LOX 3-4m.684) of 9.14 % GFP and an activity (LOX 3-4m.750) of 9.32 % GFP.
